The text below walks through data of a protein production outcome set (Wang et al. 2014).

The series is described as follows: label from the status in PepcDB records.
“MGEGALAPGLQLLLRACEQGDTDTARRLLEPGGEPVAGSEAGAEPAGPEAARAVEAGTPVPVDCSDEAGNSALQLAAAGGHEPLVRFLLRRGASVNSRNHYGWSALMQAARCGHASVAHLLLDHGADVNAQNRLGASVLTVASRGGHLGVVKLLLEAGATVDHRNPSGESTASGGSRDELLGITALMAAVQHGHEAVVRLLMEWGADPNHTARTVGWSPLMLAALLGKLSVVQQLVEKGANPDHLGVLEKTAFEVALDRKHRDLADYLDPLTTVRPKTDEEKRRPDIFHALKMGNFQLVKEIADEDPNHVNLVNGDGATPLMLAAVTGQLPLVQLLVEKHADMNKQDSVHGWTALMQATYHGNKEIVKYLLNQGADVTLRAKNGYTAFDLVMLLNDPDTELVRLLASVCMQVNKDRGGRPSHRPPLPHSKARQPWSIPMLPDDKGGLKSWWSRMSNRFRKLKLMQTLPRGLAANQPLPFSDEPELALDSTMRAPPQDRTNHLGPPEAAHAAKDSGPGNPRREKDDVLLTTMLRNGAPFPRLPSDKLKAVIPPFLPPSSFELWSSDRSRTCPNGKADPMKTVLPPRASRAHPVGCVGTDGAAGRPVKFPSISRSPTSPASSGNFNHSPHSSGGASGVGSMSRLGGELHNRSGGSVDSVLSQIAAQRKKAAGLCEQKPPCQQSSPVGPATGSSPPELPASLLGSGSGSSNVTSSSKKLDPGKRPPSGTSATSKSTSPTLTPSPSPKGHTAESSVSSSSSHRQSKSSGGSSSGTITDEDELTGILKKLSLEKYQPIFEEQEVDMEAFLTLTDGDLQELGIKTDGSRQQILAAISELNAGKGRERQILQETIHNFHSSFESSASNTRAPGNSPSMAGWVRPEETVSSRR”: the protein production entry is “failed”.

“MKYQNEGQHRSPWALIVFLALSMAVTSPATRAQSSDLPSIGGSGGLISGQMEADIGQQVMASIRRSAPQLQDPLVYDYLSAIIYRLVPSAPLDNRDLKLVLIDSPAINAFAVPGGVVGVNGGLFLNAATEQQFASVLAHELAHLSQRHFARRMQQQETSAPLTLAGMIAGIVLSAVTQSDIGIAAIAGTQAMAVQNMLAYSRSHEQEADRVGMDILASAGMDPRGMPEMFEIMMRQNRLQGNRLPEYLSTHPLTQNRVADTRNRAEQYPDTRVQDGQEYHLVRSRLQVHYSESPETAIETFEAYLAREDAQRNDAIRYGLAVAYQESRRYEKAEQLMRELLKANPGRITFQVSLAEVLLSQKRYADARALMQEALARNPGNYPITSTLAAIEIADGNGAAAADYLRELTRRLPSQEQLWLRLAEAEGMARNIVGVHRARAEYDVLMGDLKSAQRQLRQAQEKLPAGSAERQVVSERLGELTNRLQAREAG”: the protein production result is on record as “failed”.

For “MQLEVILPLVAYLVVVFGISVYAMRKRSTGTFLNEYFLGSRSMGGIVLAMTLTATYISASSFIGGPGAAYKYGLGWVLLAMIQLPAVWLSLGILGKKFAILARRYNAVTLNDMLFARYQSRLLVWLASLSLLVAFVGAMTVQFIGGARLLETAAGIPYETGLLIFGISIALYTAFGGFRASVLNDTMQGLVMLIGTVVLLIGVVHAAGGLSNAVQTLQTIDPQLVTPQGADDILSPAFMTSFWVLVCFGVIGLPHTAVRCISYKDSKAVHRGIIIGTIVVAILMFGMHLAGALGRAVIPDLTVPDLVIPTLMVKVLPPFAAGIFLAAPMAAIMSTINAQLLQSSATIIKDLYLNIRPDQMQNETRLKRMSAVITLVLGALLLLAAWKPPEMIIWLNLLAFGGLEAVFLWPLVLGLYWERANAKGALSAMIVGGVLYAVLATLNIQYLGFHPIVPSLLLSLLAFLVGNRFGTSVPQATVLTTDK”, the protein production entry is listed as “failed”.

On to “MAEERSLNGEATGQDDESFFDSDQQGDDGKSTELNQKIGDLESQNQELARDNDAINRKIESLTAEIEELRGAESKAKRKMGEMEREIDKSDEERKVLEAIASRASELETEVARLQHELITARTEGEEATAEAEKLRSEISQKGGGIEELEKEVAGLRTVKEENEKRMKELESKLGALEVKELDEKNKKFRAEEEMREKIDNKEKEVHDLKEKIKSLESDVAKGKTELQKWITEKMVVEDSLKDSEKKVVALESEIVELQKQLDDAEKMINGLKNVVEEPLNGIEFKSWSPNVTAVGSGGAVAAVAVAVAGAAVVCYIYHSRRV”, for which the protein production result is recorded as “failed”.

For the sequence “MNLNQLDIIVSNVPQVCADLEHILDKKADYANDGFAQFTIGSHCLMLSQNHLVPLENFQSGIIIHIEVEDVDQNYKRLNELGIKVLHGPTVTDWGTESLLVQGPAGLVLDFYRMK”, the protein production entry is given as “not failed”.

With “MQDEYYMARALKLAQRGRFTTHPNPNVGCVIVKDGEIVGEGYHQRAGEPHAEVHALRMAGEKAKGATAYVTLEPCSHHGRTPPCCDALIAAGVARVVASMQDPNPQVAGRGLYRLQQAGIDVSHGLMMSEAEQLNKGFLKRMRTGFPYIQLKLGASLDGRTAMASGESQWITSPQARRDVQLLRAQSHAILTSSATVLADDPALTVRWSELDEQTQALYPQQNLRQPIRIVIDSQNRVTPVHRIVQQPGETWFARTQEDSREWPETVRTLLIPEHKGHLDLVVLMMQLGKQQINSIWVEAGPTLAGALLQAGLVDELIVYIAPKLLGSDARGLCTLPGLEKLADAPQFKFKEIRHVGPDVCLHLVGA”, the protein production entry is recorded as “not failed”.

For “MHNFEEELTCPICYSIFEDPRVLPCSHTFCRNCLENILQASGNFYIWRPLRIPLKCPNCRSITEIAPTGIESLPVNFALRAIIEKYQQEDHPDIVTCPEHYRQPLNVYCLLDKKLVCGHCLTIGQHHGHPIDDLQSAYLKEKDTPQKLLEQLTDTHWTDLTHLIEKPKEQKSHSEKMIQGDKEAVLQYFKELNDTLEQKKKSFLTALCDVGNLINQEYTPQIERMKEIREQQLELMALTISLQEESPLKFLEKVDDVRQHVQILKQRPLPEVQPVEIYPRVSKILKEEWSRTEIGQIKNVLIPKMKISPKRMSCSWPGTPVYSVAWGPDSEKVLYTAGKQLIIKPLQPNAKVLQWKAHDGIILKVDWNSVNDLILSAGEDCKYKVWDSYGRPLYNSQPHEHPITSVAWAPDGELFAVGSFHTLRLCDKTGWSYALEKPNTGSIFNIAWSIDGTQIAGACGNGHVVFAHVVEQHWEWKNFQVTLTKRRAMQVRNVLNDAVDLLEFRDRVIKASLNYAHLVVSTSLQCYVFSTKNWNTPIIFDLKEGTVSLILQAERHFLLVDGSSIYLYSYEGRFISSPKFPGMRTDILNAQTVSLSNDTIAIRDKADEKIIFLFEASTGKPLGDGKFLSHKNEILEIALDQKGLTNDRKIAFIDKNRDLCITSVKRFGKEEQIIKLGTMVHTLAWNDTCNILCGLQDTRFIVWYYPNTVYVDRDILPKTLYERDASEFSKNPHIVSFVGNQVTIRRADGSLVHISITPYPAILHEYVSSSKWEDAVRLCRFVKEQTMWACLAAMAVANRDMTTAEVAYAAIGEIDKVQYINSIKNLPSKESKMAHILLFSGNIQEAEIVLLQAGLVYQAIQININLYNWERALELAVKYKTHVDTVLAYRQKFLETFGKQETNKRYLHYAEGLQIDWEKIKAKIEMEITKEREQSSSSQSSKSIGLKP”, the protein production result is “failed”.

In the case of “MKAKGNQKTKVNIVTLGCSKNLVDSENLLTQLRGNGIEAEHESKNDNSNVVVINTCGFIDNAKQESIDTILRYIDAKENGLIDKIYVSGCLSQRYKDDMEREMPQVDAFFGSNELPAILKKFRADYKHELVGERLLTTPSHYAYVKIAEGCDRPCSFCAIPVMRGKHVSTPMEDLVKQAKGMAAKGTKELILIAQDLTYYGLDIYKKRNLSDLLKNLSDVEGIDWIRLQYAYPSGFPLDVLDVMAERSNICKYIDMPLQHGSSDMLKLMRRGIDRPKTEDLIKTIRDKVPGIAFRTTMIIGHPGETEKDFDELCSFVEEQRFDRLGAFTYSHEEHTHSYSMEDTIPQEEKEERQATIMSIQEGISAELNEKKIGNTYKVLFDRKEGGYFIGRTEHDSPEVDNEVMVSAKDQYVRIGDFANVKINDAAEFDLFGEIVK”, the protein production entry is “failed”.

Take “RRLNDELLGKVVSVVSATERTEWYPALVISPSCNDDITVKKDQCLVRSFIDSKFYSIARKDIKEVDILNLPESELSTKPGLQKASIFLKTRVVPDNWKM”: the protein production entry is given as “failed”.

Regarding “METKCELNNTKKVANAFGLNEEDTNLLINAVDLDIKNNMQEISSELQQSEQSKQKQLGTTLQNLAKQNRIIK”, the protein production entry was “failed”.
